Source: PMC5095173, “Disulfide-activated protein kinase G Iα regulates cardiac diastolic relaxation and fine-tunes the Frank–Starling response” (Nature Communications, 2016)

B1: Smpx pT40 (protein, UniProt Q925F0 1-85, looked up)
Small muscular protein: MSKQPISNVRSIQANINIPMGAFRPGAGQPPRRKESTPGTAEGAPATPEEKKPVPGMKKFPGPVVNLSEIQNVKSELKYVPKGEQ
modifications: phosphorylated at T40
B2: Arhgap35 pS1150 (protein, UniProt Q91YM2 1-1499, looked up)
Rho GTPase-activating protein …: MMMARKQDVRIPTYNISVVGLSGTEKEKGQCGIGKSCLCNRFVRPSADEFHLDHTSVLSTSDFGGRVVNNDHFLYWGEVSRSLEDCVECKMHIVEQTEFIDDQTFQPHRSTALQPYIKRAAATKLASAEKLMYFCTDQLGLEQDFEQKQMPDGKLLVDGFLLGIDVSRGMNRNFDDQLKFVSNLYNQLAKTKKPIVVVLTKCDEGVERYIRDAHTFALSKKNLQVVETSARSNVNVDLAFSTLVQLIDKSRGKTKIIPYFEALKQQSQQIATAKDKYEWLVSRIVKNHNENWPSVSRKMQASPEYQDYVYLEGTQKAKKLFLQHIHRLKHEHIERRRKLYLAALPLAFEALIPNLDEVDHLSCIKAKKLLETKPEFLKWFVVLEETPWDATSHIDNMENERIPFDLMDTVPAEQLYETHLEKLRNERKRAEMRRAFKENLETSPFITPGKPWEEARSFIMNEDFYQWLEESVYMDIYGKHQKQIIDRAKEEFQELLLEYSELFYELELDAKPSKEKMGVIQDVLGEEQRFKALQKLQAERDALILKHIHFVYHPTKETCPSCPACVDAKIEHLISSRFIRPSDRNQKNSLSDLNIDRINLVILGKDGLARELANEIRALCTNDDKYVIDGKMYELSLRPIEGNVRLPVNSFQTPTFQPHGCLCLYNSKESLSYVVESIEKSRESTLGRRDNHLVHLPLTLILVNKRGDTSGETLHSLIQQGQQIASKLQCVFLDPASAGIGYGRNINEKQISQVLKGLLDSKRNLNLVSSTASIKDLADVDLRIVMCLMCGDPFSADDVLSPVLQSQTCKSSHCGSSNSVLLELPIGLHKKRIELSVLSYHSSFSIRKSRLVHGYIVFYSAKRKASLAMLRAFLCEVQDIIPIQLVALTDGAIDVLDNDLSREQLTEGEEIAQEIDGRFTSIPCSQPQHKLELFHPFFKDVVEKKNIIEATHMYDNVAEACSTTEEVFNSPRAGSPLCNSNLQDSEEDVEPPSYHLFREDATLPSLSKDHSKFSMELEGNDGLSFIMSNFESKLNNKVPPPVKPKPPVHFDITKDLSYLDQGHREGQRKSMSSSPWMPQDGFDPSDYAEPMDAVVKPRNEEENIYSVPHDSTQGKIITIRNINKAQSNGSGNGSDSEMDTSSLERGRKVSAVSKPVLYRTRCTRLGRFASYRTSFSVGSDDELGPIRKKEEDQASQGYKGDNAVIPYETDEDPRRRNILRSLRRNTKKPKPKPRPSITKATWESNYFGVPLTTVVTPEKPIPIFIERCIEYIEATGLSTEGIYRVSGNKSEMESLQRQFDQDHNLDLAEKDFTVNTVAGAMKSFFSELPDPLVPYSMQIDLVEAHKINDREQKLHALKEVLKKFPKENHEVFKYVISHLNKVSHNNKVNLMTSENLSICFWPTLMRPDFSSMDALTATRSYQTIIELFIQQCPFFFYNRPISEPPGAAPGSPSAMAPTVPFLTSTPATSQPSPPQSPPPTPQSPMQPLLSSQLQAEHTL
modifications: phosphorylated S1150
B3: Stk10 pS13 (protein, UniProt E9PTG8 1-967, looked up)
Serine/threonine-protein …: MAFANFRRILRLSTFEKRKSREYEHVRRDLDPNDVWEILGELGDGAFGKVYKAKNKETGALAAAKVIETKSEEELEDYIVEIEILATCDHPYIVKLLGAYYYDGKLWIMIEFCPGGAVDAIMLELDRGLTEPQIQVVCRQMLEALNFLHGKRIIHRDLKAGNVLMTLEGDIRLADFGVSAKNLKTLQKRDSFIGTPYWMAPEVVLCETMKDAPYDYKADIWSLGITLIEMAQIEPPHHELNPMRVLLKIAKSDPPTLLTPSKWSTEFRDFLKIALDKNPETRPSAAQLLQHPFVSTVTSNKALRELVAEAKAEVMEEIEDGKEDGSEKDAVSAVPPPVNHTQDSSANGTQPSLNSDKLLQDSSTPLPPSQPQEPVNGPCNQPSGDGSPQNTSPADEVSKNDNGLKVPVPLRKSRPLSVDARIQVTEEKQITDQAENPSSAASKPPKVNQSRPNSSALETLGVETLANGGLELPGSVTPNHSKRASDCSNLSTSESMDYGTSLSADLSLNKETGSLSLKGSKLHNKTLKRTRRFVVDGVEVSITTSKIISEDEKKDEEMRFLRRQELRELRLLQKEEHRNQTQLSTKHELQLEQMHRRFEQEINAKKKFYDVELENLERQQKQQVEKMEQDHSVRRREEAKRIRLEQDRDYARFQEQLKQMKKEVKRSIEKALRKQRQESMRMGQDSHTQKKQRLDRDFVAKQKEDLELAMKKLTAENRREICDKERDCLNKKQELLRDREAALWEMEEHQLQERHQLVKQQLKDQYFLQRHDLLRKHEKEREQMQRYNQRMMEQLKVRQQQEKARLPKIQRSDGKTRMAMYKKSLHINGAGSASEQREKVKQFSQQEEKRQKAERLQQQQKHENQMRDMVAQCESNMNELQQLQNEKCHLLVEHETQKLKALDESHNQSLKEWRDKLRPRKKALEEDLNQKKREQEMFFRLSEEAETRPTTPNRASKFFPYSSGDAS
modifications: phosphorylated at S13
B4: Ppp1r12a pT697 (protein, UniProt Q10728 1-1032, looked up)
Protein phosphatase 1 …: MKMADAKQKRNEQLKRWIGSETDLEPPVVKRQKTKVKFDDGAVFLAACSSGDTDEVLKLLHRGADINYANVDGLTALHQACIDDNVDMVKFLVENGANINQPDNEGWIPLHAAASCGYLDIAEFLIGQGAHVGAVNSEGDTPLDIAEEEAMEELLQNEVNRQGVDIEAARKEEERIMLRDARQWLNSGHISDVRHAKSGGTALHVAAAKGYTEVLKLLIQAGYDVNIKDYDGWTPLHAAAHWGKEEACRILVDNLCDMETVNKVGQTAFDVADEDILGYLEELQKKQNLLHSEKRDKKSPLIESTANMENNQPQKTFKNKETLIIEPEKNASRIESLEQEKADEEEEGKKDESSCSSEEDEEDDSESEAETDKTKPMASVTNAHTASTQAAPAAVTTPTLSSNQGTPTSPVKKFPTSTTKISPKEEERKDESPASWRLGLRKTGSYGALAEITASKEAQKEKDTAGVIRSASSPRLSSSLDNKEKEKDNKGTRLAYVAPTIPRRLGSTSDIEEKENRESSNLRTSSSYTRRKWEDDLKKNSSINEGSTYHRSCSFGRRQDDLISCSVPSTTSTPTVTSAAGLQKSFLSSTSTTAKTPPGSSPAGTQSSTSNRLWAEDSTEKEKDSAPTAATILVAPTVVSAAASSTTALTTTTAGTLSSTSEVRERRRSYLTPVRDEESESQRKARSRQARQSRRSTQGVTLTDLQEAEKTIGRSRSTRTREQENEEKDKEEKEKQDKEKQEEKKESEVSREDEYKQKYSRTYDETYARYRPVSTSSSSTPSSSSLSTLGSSLYASSQLNRPNSLVGITSAYSRGLTKDNEREGEKKEEEKEGEDKSQPKSIRERRRPREKRRSTGVSFWTQDSDENEQERQSDTEDGSSKRDTQTDSVSRYDSSSTSSSDRYDSLLGRSASYSYLEERKPYGSRLEKDDSTDFKKLYEQILAENEKLKAQLHDTNMELTDLKLQLEKATQRQERFADRSLLEMEKRERRALERRISEMEEELKMLPDLKADNQRLKDENGALIRVISKLSK
modifications: phosphorylated at T697
B5: Ndrg2 pS332 (protein, UniProt Q8VBU2 2-371, looked up)
Protein NDRG2: AELQEVQITEEKPLLPGQTPEAAKEAELAARILLDQGQTHSVETPYGSVTFTVYGTPKPKRPAIFTYHDVGLNYKSCFQPLFQFGDMQEIIQNFVRVHVDAPGMEEGAPVFPLGYQYPSQDQLADMIPCILQYLNFSTIIGVGVGAGAYILSRYALNHPDTVEGLVLINIDPNAKGWMDWAAHKLTGLTSSIPEMILGHLFSQEELSGNSELIQKYRSLITHAPNLENIELYWNSYNNRRDLNFERGGEMTLKCPVMLVVGDQAPHEDAVVECNSKLDPTQTSFLKMADSGGQPQLTQPGKLTEAFKYFVQGMGYMASSCMTRLSRSRTASLTSAASIDGSRSRSRTLSQSSESGTLPSGPPGHTMEVSC
modifications: phosphorylated at S332
B6: Ptrf pS302 (protein, UniProt P85125 1-392, looked up)
Caveolae-associated protein 1: MEDVTLHIVERPYSGYPDASSEGPEPTPGEARATEEPSGTGSDELIKSDQVNGVLVLSLLDKIIGAVDQIQLTQAQLEERQAEMEGAVQSIQGELSKLGKAHATTSNTVSKLLEKVRKVSVNVKTVRGSLERQAGQIKKLEVNEAELLRRRNFKVMIYQDEVKLPAKLSVSKSLKESEALPEKEGDELGEGERPEEDAAAIELSSDEAVEVEEVIEESRAERIKRSGLRRVDDFKKAFSKEKMEKTKVRTRENLEKTRLKTKENLEKTRHTLEKRMNKLGTRLVPVERREKLKTSRDKLRKSFTPDHVVYARSKTAVYKVPPFTFHVKKIREGEVEVLKATEMVEVGPDDDEVGAERGAETDLLRGSSPDVHTLLEITEESDAVLVDKSDSD
modifications: phosphorylated at S302
B7: Ptrf pS169 (protein, UniProt P85125 1-392, looked up)
Caveolae-associated protein 1: B6 Caveolae-associated protein 1
modifications: phosphorylated at S169
B8: Ptrf pS171 (protein, UniProt P85125 1-392, looked up)
Caveolae-associated protein 1: B6 Caveolae-associated protein 1
modifications: phosphorylated at S171
B9: Ppp1r2 pT21 (protein, UniProt P50411 2-205, looked up)
Protein phosphatase inhibitor …: AASTASHRPIKGILKNKTSTTSSVVASAEQPRRTVEEELSKKSQKWDEMNILATYHPADKDYGLMKIDEPDTPYHNMIGDDEDVCSDSEGNEVMTPEILAKKLAAAEGSEPKFRTREQESSGEEDNDLSPEEREKKRQFEMKRKLHYNEGLNIKLARQLISKDLHDDDEDEEMSETADADSMNIEESNQGSTAGDHLQHKSQSS
modifications: phosphorylated at T21

Each molecule was assayed on PKGIα (analogue-sensitive C42S/M438G), cGMP-activated (assay: Chemical genetic phosphoproteomic screen, cGMP-activated PKGIα C42S/M438G versus unactivated control). Details: Group 1 (cGMP-activated) vs Group 3 (control).
Assay type: biochemical, human PKGIα; substrates in rat heart homogenate
Procedure, shortened: (§1)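 Analogue-sensitive human PKGIα mutants (M438G, air-oxidized to disulfide dimer; C42S/M438G, cGMP-activated), expressed in 293-F cells, thiophosphorylate substrates in rat left-ventricle lysate (20 mg ml) using N6-alkylated ATPγS. Thiophosphopeptides are recovered by covalent capture and identified with sites by LC–MS/MS, each compared against an unactivated control.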

| Molecule | log2 fold changes |
| --- | --- |
| B1 | 0.3577 |
| B2 | 0.1001 |
| B3 | 0.7023 |

Same assay, conditions: control = PKGIα C42S/M438G

| Molecule | log2 fold change cGMP vs Control |
| --- | --- |
| B4 | 0.8734 |
| B5 | 3.419 |
| B6 | 3.161 |
| B7 | 4.006 |
| B8 | 3.564 |
| B9 | 5.158 |

Each molecule was assayed on PKGIα (analogue-sensitive M438G), disulfide-activated (assay: Chemical genetic phosphoproteomic screen, disulfide-activated PKGIα M438G versus unactivated control). Details: Group 2 (disulfide-activated) vs Group 3 (control).
Assay type: biochemical, human PKGIα; substrates in rat heart homogenate
Procedure, shortened: as §1

| Molecule | log2 fold changes |
| --- | --- |
| B1 | 1.906 |
| B2 | 0.2658 |
| B3 | 0.1825 |

Same assay, conditions: control = PKGIα C42S/M438G

| Molecule | log2 fold change Disulfide vs Control |
| --- | --- |
| B4 | 0.1684 |
| B5 | 1.914 |
| B6 | 1.32 |
| B7 | 2.165 |
| B8 | -0.2713 |
| B9 | 1.627 |
